Laboratory results reported in the supplement of paper PMC10266784.

B1: library; numbered along this chain (parent)
chain: MAAAAAAAAEQQSSNGPVKKSMREKAVERRSVNKEHNSNFKAGYIPIDEDRLHKTGLRGRKGNLAICVIILLFILAVINLIITLVIWAVIRIGPNGCDSMEFHESGLLRFKQVSDMGVIHPLYKSTVGGRRNENLVITGNNQPIVFQQGTTKLSVENNKTSITSDIGMQFFDPRTQNILFSTDYETHEFHLPSGVKSLNVQKASTERITSNATSDLNIKVDGRAIVRGNEGVFIMGKTIEFHMGGNMELKAENSIILNGSVMVSTTRLPSSSSGDQLGSGDWVRYKLCMCADGTLFKVQVTSQNMGCQISDNPCGNTH

Variants of: B1
Experiment: SGCB cell-surface expression functional score (HA stain, bin4 vs bin1, normalised to synonymous) (log10 ratio); higher = more cell-surface SGCB (functional)
In short: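 The functional score is a log ratio of variant frequency in the highest versus the lowest intensity bin, expressed as a median over codons and duplicate transductions. Codon-saturation libraries of HA-tagged, YFP-fused human beta-sarcoglycan were transduced by lentivirus at MOI <0.1 into HEK293 cells stably expressing alpha-, gamma- and delta-sarcoglycan, and the cells were stained on ice with Alexa Fluor 647 anti-HA, fixed and sorted into four 5% intensity bins before amplicon sequencing. Synonymous variants were scaled to mean 0, SD 0.5 within each section.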

SGCB cell-surface expression functional score (log10) of substitutions, site by site:
T209: A -0.04 | Q -0.66 | N -0.52 | W -0.85 | K -1.12 | F -0.85 | I -0.34 | H -0.13 | S 0.1 | R -0.83 | P -0.71 | Y -0.71 | L -0.72 | V 0.51 | M 0.74 | C -1.07 | D -1.17
V220: S 0.45 | W -1.67 | N 0.09 | C 0.09 | T 0.63 | D -0.38 | H 0.43 | A 0.7 | I 0.43 | K -0.09 | M 0.77 | R -1.12 | G 0.34 | F -0.09 | L 0.84 | E -0.86 | P 0.3 | Y -0.43 | Q -0.31
G222: A 0.63
N217: W -1.28 | L 0.37 | V 0.65 | K 0.3 | E 0.9 | T 0.16 | A 0.9 | P -1.08 | M 0.27 | H 0 | Y 0.59 | F 1.13 | S 0.54 | C -0.04 | R 0.7 | D 0.2 | Q 0.77 | G 0.5 | I 0.1
A203: M 0.612 | R -1.46 | W -0.3 | Y -2.13 | V -0.13 | P -0.92 | S -1.01 | Q -0.5 | T -0.59 | L 0
A212: C -0.61 | I 0.23 | G 0.11 | H -0.76 | E 0.91 | W -0.44 | Y 0.86 | T 0.02 | R -1.47 | V -0.06 | L -0.95 | K -1.05 | D 0.56 | M 0.16 | P -0.25 | Q 0.72 | S 0.29 | F -0.4 | N -0.89
D221: K 0.13 | H 0.75 | Y 0.42 | A 0.18 | T 0.96 | G 0.35 | W 0.8 | L 0.62 | M 0.53 | C -0.33 | E 0.01 | P 0.1 | Q 0.74 | R 0.19 | V 0.59 | N -0.22 | I 0.45 | S 0.59 | F 1
T205: G -1.7 | V -0.05 | M -0.07 | H -0.99 | F -0.9 | R -1.93 | P -0.48 | N -1.69 | C -0.21 | S -0.16 | Q -2.06 | D -1.46 | Y -1.37 | L -0.11 | W -2.65 | K -2.61 | A -0.17 | E -0.93 | I -0.16
T213: A -0.44 | N 0.03 | I 0.5 | H -0.04 | C -0.94 | M 0.76 | S 0.08 | D -0.81 | L -0.5 | R 0.18 | F -0.31 | P -1.5 | G 0.65 | E 0.86 | Q 0.13 | V -1.02 | Y -0.24 | K 0.23
K219: P -0.21 | Q 0.3 | V -0.18 | D 0.29 | T 0.6 | E -0.03 | G -0.33 | S 0.32 | L 0.3 | R 0.05 | M 0.67 | C 0.59 | H 0.53 | F 0.64 | Y -0.13 | N -0.17 | W -0.31 | I 0.23 | A 0.76
D215: H -0.39 | C -1.31 | F -1.47 | M -1 | T -0.88 | L -1.51 | E 0.16 | V -0.56 | Q -1.03 | R -0.63 | S -0.25 | A -0.72 | P -0.55 | N 0.41 | K 0 | I -0.99 | Y -0.46 | G -0.26
L216: M 0.99 | C -2.34 | N -1.72 | W -0.99 | I -0.71 | Y -1.59 | S -1.57 | D -2.69 | R -1.93 | Q -0.15 | G -1.5 | E -1.92 | T -1.02 | F -0.42 | H -2.1 | P -1.25 | V -2.64 | A -1.97 | K -0.59
S204: C -0.16 | A -0.04 | T -0.17 | Y -0.38 | F -0.03 | P -0.83
R207: Q -0.74 | F -1.57 | N -0.12 | T -0.69 | L -0.39 | M 0.13 | P -1.15 | G -1.44 | V -0.64 | D -1.43 | W -0.06 | Y -0.73 | C -0.91 | A -1.05 | H -0.5 | S -1.22 | I -1.03 | E -2.46 | K -0.81
N211: T -0.4 | H -0.34 | C -1.44 | Y 0 | P -0.12 | L -0.58 | G -3.64 | K 0.09 | W -3.13 | M 0.07 | R -0.82 | D -0.68 | V -0.91 | Q -0.03 | F -0.28 | S -0.02 | A -0.33 | I -0.69 | E 0.12
E206: Q -0.93 | P -0.42 | N 0.66 | M 1.59 | G -0.37 | W 0.91 | L -0.27 | Y -0.12 | I -0.47 | S 0.16 | T 0.4 | V 0.45 | D 0.33 | F 0.19 | R -0.66 | C -0.71 | H 0.42 | A 1.04 | K -0.41
S210: R -1.31 | I -0.9 | T -0.61 | N -1.62 | G -0.16 | L -1.26 | M -1.94 | K -1.43 | A 0.29 | Q -1.03 | H -0.47 | W -1.35 | D -0.42 | V -1.36 | Y -2.28 | F -0.9 | C -0.17 | P -1.92 | E -1.75
I218: A -0.08 | C -0.48 | H -2.33 | R -1.49 | M 0.26 | G -1.15 | K -1.78 | V 0.46 | T -0.49 | E -1.24 | S -1.26 | D -1.45 | Y -1.39 | Q -2.02 | L 0.56 | F 0.87 | W -0.149 | P -0.63 | N -1.03
I208: Y -2.38 | C -1.23 | R -1.44 | A -1.44 | F -0.61 | N -1.22 | S -1.11 | M -0.33 | K -1.11 | V 0.49 | W -1.04 | L 0.3 | E -2.83 | P -1.33 | H -1.66 | Q -1.96 | T -1.57 | D -1.1 | G -1.48
S214: G -0.32 | K -0.46 | Y -1.74 | M -0.57 | T -0.12 | L -1.06 | A 0.25 | N -0.1 | W -1.07 | R -0.31 | P -1.11 | H -0.9 | F -1.55 | I -0.69 | Q -0.1 | C -0.08 | V -0.18
